# Measured values from patent US20230312740A1 (VIRTUOSO BINCO, published 2023).
# Experiments:
# Avi-human CD38 ECD [1] = biological target: T1, Avi-human CD38 ECD (human, UniProt P28907 43-300); assay: ELISA on human CD38 ECD; class B = EC50 0.1 nM - 0.5 nM (table legend)
# T1 construct: eluted as a monomer; also called hCD38; huCD38
# Avi-human CD38 ECD [2] = biological target: T1, Avi-human CD38 ECD; assay: ELISA on human CD38 ECD; class C = EC50 >0.5 nM (table legend)
# Avi-human CD38 ECD [3] = biological target: T1, Avi-human CD38 ECD; assay: ELISA, plate coated with recombinant CD38
# Experimental: A 96-well plate was coated overnight at 4° C. with 1 µg/ml recombinant CD38 or ICAM1. After washing 3 times, the plate was blocked with 300 µl 1% BSA in PBST at 37° C. for 1 hour. Serially diluted antibodies were added and incubated at 37° C. for 1 hour. The plate was then washed 4 times with PBST and incubated with 1:5000 diluted 2nd antibody (Sigma, Cat# A0293) at 37° C. for 1 hour.
# [4] = biological target: T2, CD38 on the surface of tumor cells (human, UniProt P28907 1-300); assay: cell-based or functional assay
# Avi-human CD38 ECD [5] = biological target: T1, Avi-human CD38 ECD; assay: SPR (Biacore 8K), antibody captured, monomeric CD38 ECD injected
# Experimental: Furthermore, binding kinetics measurements of the anti-CD38 and anti-ICAM1 antibodies were not affected by antibody valency in the SPR assays because antibodies were immobilized and challenged with monomeric antigens. SPR was performed on a Biacore 8K instrument (GE Healthcare). Antibodies were captured on Biacore Series S CM5 sensor chips coated with a monoclonal mouse anti-human IgG (Fc) antibody (GE Healthcare human antibody capture kit). Serial 3-fold dilutions of antigen (CD38 ECD or ICAM1 ECD) were injected at a flow rate of 30 µl/min. Each sample was analyzed with 1 min association and 10 min dissociation at room temperature (25° C.). After each injection, the chip was regenerated using 3 M MgCl₂. A 1:1 Langmuir model of simultaneous fitting of kₒₙ and koff was used for kinetics analysis.
# [6] = biological target: T2, CD38 on the surface of tumor cells; assay: flow cytometry on Daudi cells
# Experimental: Surface expression of CD38 and ICAM1 on the transformed cell lines was quantified by flow cytometry. Harvested cells were centrifuged at 2000 rpm for 5 min, resuspended in 10 - 15 ml ice-cold culture medium, and then counted. Then, 3×10⁶ cells were resuspended per ml of blocking buffer (PBS plus 2% FBS). 100 µl of the cell suspension was dispensed into each well of a 96-well plate and incubated at room temperature for 10-20 min. […] While incubating, purified antibodies were diluted to the desired dilution with blocking buffer. After a 10-20 minutes incubation, cells were centrifuged for 5 minutes at 2000 rpm in a refrigerated centrifuge. Blocking buffer was aspirated, and the cells were resuspended in 100 µl/well diluted antibodies and incubated for 1 hour at 4° C. The cells were then washed 3 times with PBS plus 2% FBS. […] The cells were then washed 3 times with 200 µl PBS by centrifuging at 2000 rpm for 5 min. After the last wash, the cells were resuspended in 300 µl cold PBS and analyzed on a FACSVerse™ (BD Biosciences) flow cytometer.
# Binding of the chimeric anti-CD38 and anti-ICAM1 antibodies to proteins on the surface of tumor cells was determined by flow cytometry, as described above.
Binder,EC50 (Avi-human CD38 ECD [1]) [pM],EC50 (Avi-human CD38 ECD [2]) [pM],other results
"h18E4-19 HC E100bA (antibody, name in Kabat numbering, V domains shown, Alanine scan variant of h18E4-19; Kabat numbers, not linear positions of the entry) VH: EVQLLESGGGLVQPGGSLRLSCAASGFSFNNYWIIWIRQAPGKGLEWVAAIYSPSGDIKYYADWAKGRFTVSKDNSKNTVYLQMNSLRAEDTAVYYCARELSGSSYAGYFESWGQGTLVTV VL: DIQLTQSPSTLSASVGDRVTITCRSSQSVYGHNWLAWYQQKPGKAPKLLMYRASNLASGVPSRFSGSGSGTEFTLTISSVQPDDFATYYCQGYYSGGSYAFGGGTKVEIK",–,> 500,–
"h18E4-19 HC Y100dA (antibody, name in Kabat numbering, V domains shown, Alanine scan variant of h18E4-19; Kabat numbers, not linear positions of the entry) VH: EVQLLESGGGLVQPGGSLRLSCAASGFSFNNYWIIWIRQAPGKGLEWVAAIYSPSGDIKYYADWAKGRFTVSKDNSKNTVYLQMNSLRAEDTAVYYCARELSGSSYEGAFESWGQGTLVTV VL: DIQLTQSPSTLSASVGDRVTITCRSSQSVYGHNWLAWYQQKPGKAPKLLMYRASNLASGVPSRFSGSGSGTEFTLTISSVQPDDFATYYCQGYYSGGSYAFGGGTKVEIK",–,> 500,–
"anti-CD38 chimeric monoclonal antibody 18E4 (antibody, human IgG1, kappa, V domains shown, Rabbit variable domains on human IgG1 / human kappa constant regions; also called chimeric 18E4; Chimeric antibody 18E4) VH: QSLEESGGDLVKPGASLTLTCTASGFSFNNYWICWIRQAPGKGLEWVACIYSPSGDIKYYANWAKGRFTVSKTSSTTVTLQMTSLTGADTATYFCARELSGSSYEGYFESWGPGTLVTVSS VL: AQVLTQTPSSVSAAVGGTVTINCQCSQSVYGHNWLAWYQHKPGQPPKLLMYRASNLASGVPSRFKGSGSGSQFTLTIGEVQSDDAATYYCQGYYNGGSYAFGGGTEVVVRR",–,–,"EC50 (Avi-human CD38 ECD [3]): ~50 pM; CDC on Daudi cells, EC50 [4]: 1000 to 2000 pM; Kd (Avi-human CD38 ECD [5]): 100 to 500 pM; EC50 [6]: 300 to 1000 pM"

# Continued, in another order:
EC50 (Avi-human CD38 ECD [1]) [pM],EC50 (Avi-human CD38 ECD [2]) [pM],Binder,other results
100 to 500,–,"h18E4-19 LC Y96A (antibody, V domains shown, Alanine scan variant of h18E4-19; Kabat numbers, not linear positions of the entry) VH: EVQLLESGGGLVQPGGSLRLSCAASGFSFNNYWIIWIRQAPGKGLEWVAAIYSPSGDIKYYADWAKGRFTVSKDNSKNTVYLQMNSLRAEDTAVYYCARELSGSSYEGYFESWGQGTLVTV VL: DIQLTQSPSTLSASVGDRVTITCRSSQSVYGHNWLAWYQQKPGKAPKLLMYRASNLASGVPSRFSGSGSGTEFTLTISSVQPDDFATYYCQGYYSGGSAAFGGGTKVEIK",–
100 to 500,–,"h18E4-19 LC G90A (antibody, V domains shown, Alanine scan variant of h18E4-19; Kabat numbers, not linear positions of the entry) VH: EVQLLESGGGLVQPGGSLRLSCAASGFSFNNYWIIWIRQAPGKGLEWVAAIYSPSGDIKYYADWAKGRFTVSKDNSKNTVYLQMNSLRAEDTAVYYCARELSGSSYEGYFESWGQGTLVTV VL: DIQLTQSPSTLSASVGDRVTITCRSSQSVYGHNWLAWYQQKPGKAPKLLMYRASNLASGVPSRFSGSGSGTEFTLTISSVQPDDFATYYCQAYYSGGSYAFGGGTKVEIK",–
–,> 500,"h18E4-19 LC Y91A (antibody, V domains shown, Alanine scan variant of h18E4-19; Kabat numbers, not linear positions of the entry) VH: EVQLLESGGGLVQPGGSLRLSCAASGFSFNNYWIIWIRQAPGKGLEWVAAIYSPSGDIKYYADWAKGRFTVSKDNSKNTVYLQMNSLRAEDTAVYYCARELSGSSYEGYFESWGQGTLVTV VL: DIQLTQSPSTLSASVGDRVTITCRSSQSVYGHNWLAWYQQKPGKAPKLLMYRASNLASGVPSRFSGSGSGTEFTLTISSVQPDDFATYYCQGAYSGGSYAFGGGTKVEIK",–
–,> 500,"h18E4-19 LC G94A (antibody, V domains shown, Alanine scan variant of h18E4-19; Kabat numbers, not linear positions of the entry) VH: EVQLLESGGGLVQPGGSLRLSCAASGFSFNNYWIIWIRQAPGKGLEWVAAIYSPSGDIKYYADWAKGRFTVSKDNSKNTVYLQMNSLRAEDTAVYYCARELSGSSYEGYFESWGQGTLVTV VL: DIQLTQSPSTLSASVGDRVTITCRSSQSVYGHNWLAWYQQKPGKAPKLLMYRASNLASGVPSRFSGSGSGTEFTLTISSVQPDDFATYYCQGYYSAGSYAFGGGTKVEIK",–
100 to 500,–,"h18E4-19 LC S93A (antibody, V domains shown, Alanine scan variant of h18E4-19; Kabat numbers, not linear positions of the entry) VH: EVQLLESGGGLVQPGGSLRLSCAASGFSFNNYWIIWIRQAPGKGLEWVAAIYSPSGDIKYYADWAKGRFTVSKDNSKNTVYLQMNSLRAEDTAVYYCARELSGSSYEGYFESWGQGTLVTV VL: DIQLTQSPSTLSASVGDRVTITCRSSQSVYGHNWLAWYQQKPGKAPKLLMYRASNLASGVPSRFSGSGSGTEFTLTISSVQPDDFATYYCQGYYAGGSYAFGGGTKVEIK",–
